Measurements reported in article PMC10728069.

Columns and labels:
GST-MYBS1 (rice) = experiment: pull-down; settings: buffer not stated
[1] = target: His-MoSPAB1ΔSP (Magnaporthe oryzae) (UniProt G4N0C3); experiment: pull-down; settings: buffer not stated

Substance: Bsr-d1 promoter 1689 bp
- binding signal (fold of bound GST-MYBS1) (GST-MYBS1 (rice)): 0.65
- binding signal (fold of bound MoSPAB1ΔSP) [1]: 1.11
